Results reported in patent EP4545559A2 (INSTITUTO BUTANTAN, dated 2025).
Where two headings read alike, the source gives them in different places.

Tests used:
[1] = target: T1, RBD Gamma (K417T/E484K/N501Y) (SARS-CoV-2, UniProt P0DTC2 319-541); test: SPR, antigen on CM5 sensor
T1 construct: domain: RBD

[2] = target: T2, RBD Delta (L452R/T478K) (SARS-CoV-2, UniProt P0DTC2 319-541); test: SPR, antigen on CM5 sensor
T2 construct: domain: RBD

[3] = target: T3, RBD Omicron (G339D, S371L, S373P, S375F, K417N, N440K, G446S, S477N, T478K, E484A, Q493R, G496S, Q49 (SARS-CoV-2, UniProt P0DTC2 319-541)); test: SPR, antigen on CM5 sensor
T3 construct: range 319-541

[4] = target: T1, RBD Gamma (K417T/E484K/N501Y); test: SPR kinetics; *** did not dissociate until 36000sec
[5] = target: T2, RBD Delta (L452R/T478K); test: as above
[6] = target: T3, RBD Omicron (G339D, S371L, S373P, …); test: as above
[7] = target: T1, RBD Gamma (K417T/E484K/N501Y); test: SPR, antigen on CM5 sensor; remark: listed apart in the source
[8] = target: T2, RBD Delta (L452R/T478K); test: SPR, antigen on CM5 sensor; remark: listed apart in the source
[9] = target: T3, RBD Omicron (G339D, S371L, S373P, …); test: SPR, antigen on CM5 sensor; remark: listed apart in the source
[10] = target: T3, RBD Omicron (G339D, S371L, S373P, …); test: SPR kinetics; * dissociation in 360sec
[11] = target: T1, RBD Gamma (K417T/E484K/N501Y); test: SPR kinetics; *** did not dissociate until 36000sec; remark: listed apart in the source
[12] = target: T2, RBD Delta (L452R/T478K); test: as above; remark: listed apart in the source
[13] = target: T1, RBD Gamma (K417T/E484K/N501Y); test: SPR, antigen on CM5 sensor; remark: listed apart in the source
[14] = target: T2, RBD Delta (L452R/T478K); test: SPR, antigen on CM5 sensor; remark: listed apart in the source
[15] = target: T3, RBD Omicron (G339D, S371L, S373P, …); test: SPR, antigen on CM5 sensor; remark: listed apart in the source
[16] = target: T1, RBD Gamma (K417T/E484K/N501Y); test: SPR kinetics; * dissociation in 360sec
[17] = target: T2, RBD Delta (L452R/T478K); test: SPR kinetics; * dissociation in 360sec
[18] = target: T3, RBD Omicron (G339D, S371L, S373P, …); test: SPR kinetics; * dissociation in 360sec; remark: listed apart in the source
[19] = target: T2, RBD Delta (L452R/T478K); test: SPR, antigen on CM5 sensor; remark: listed apart in the source
[20] = target: T2, RBD Delta (L452R/T478K); test: SPR kinetics; * dissociation in 360sec; remark: listed apart in the source
[21] = target: T1, RBD Gamma (K417T/E484K/N501Y); test: SPR, antigen on CM5 sensor; remark: listed apart in the source
[22] = target: T2, RBD Delta (L452R/T478K); test: SPR, antigen on CM5 sensor; remark: listed apart in the source
[23] = target: T3, RBD Omicron (G339D, S371L, S373P, …); test: SPR, antigen on CM5 sensor; remark: listed apart in the source
[24] = target: T1, RBD Gamma (K417T/E484K/N501Y); test: SPR kinetics; * dissociation in 360sec; remark: listed apart in the source
[25] = target: T3, RBD Omicron (G339D, S371L, S373P, …); test: SPR kinetics; * dissociation in 360sec; remark: listed apart in the source
[26] = target: T2, RBD Delta (L452R/T478K); test: SPR kinetics; *** did not dissociate until 36000sec; remark: listed apart in the source
[27] = target: T1, RBD Gamma (K417T/E484K/N501Y); test: SPR, antigen on CM5 sensor; remark: listed apart in the source
[28] = target: T2, RBD Delta (L452R/T478K); test: SPR, antigen on CM5 sensor; remark: listed apart in the source
[29] = target: T3, RBD Omicron (G339D, S371L, S373P, …); test: SPR, antigen on CM5 sensor; remark: listed apart in the source
[30] = target: T1, RBD Gamma (K417T/E484K/N501Y); test: SPR kinetics; ** dissociation in 36000sec
[31] = target: T2, RBD Delta (L452R/T478K); test: SPR kinetics; *** did not dissociate until 36000sec; remark: listed apart in the source
[32] = target: T3, RBD Omicron (G339D, S371L, S373P, …); test: as above; remark: listed apart in the source

B1: Monoclonal antibody S.9.2.B8 (antibody, V domains shown)
VH: EVQLVETGGGLIQPGGSLRLSCAASGLIVSSNYMTWVRQAPGKGLEWVSVLYSGGTTYYADSVKGRVTISRDNSKNTLYLQVNSLTVADTAVYYCARDLADRGGMDVWGQGTTVTVSS
VL: SYELTQPPSVSVAPGQTARITCGGNNIGSQSVHWYQQKPGQAPVLVVYDDSDRPSGIPERFSGSKSGNMATLTISRVEAGDEADYYCQVWDSSSDHVVFGGGTKLTVL
notes: also called mAb S.9.2.B8
B1 showed an RU [1] of 74 RU, an RU [2] of 163 RU and an RU [3] of 22 RU. It also gave a Kd [4] of roughly 1.17 nM, a Kd [5] of roughly 0.836 pM and a Kd [6] of roughly 1.77 nM.

B2: Monoclonal antibody S.9.1.C9 (antibody, V domains shown)
VH: QVQLVESGGGVVQPGRSLGLSCAVSGFTFSNYGMDWVRQAPGKGLEWVAVTSYDGSNKYYADSVKGRFTISRDNSKNTLYLQMNSLRTEDTAVYYCAKHGGGPYCGGGTCYLAYFDYWGQGTLVTVSS
VL: DIQMTQSPSSLSASVRDRVTITCQASQDISKFLNWYQQKPGKAPKLLIYDASNLETGVPSRFSGSGSGTDFTFTISSLQPEDIATYYCQQYDNLPITFGQGTRLEIKR
notes: also called mAb S.9.1.C9
In the case of B2, the RU [7] is reported as 294 RU, the RU [8] is reported as 636 RU and the RU [9] is reported as 137 RU. It also gave a Kd [10] of 0.241 nM, a Kd [11] of roughly 0.362 nM and a Kd [12] of roughly 0.455 nM.

B3: Monoclonal antibody S.11.1.F4 (antibody, V domains shown)
VH: QVQLVQSGAEVKKPGSSVRVSCKASAGTFSSYAIRWVRQAPGQGLEWMGTIIPIFGTTNYAQKFQGRVSITADESTNTAYMELSSLRSEDTAVYYCARDLETSPLYGLDVWGQGTTVTVSS
VL: DIQMTQSPSSLSASVGDRVTITCRASQTISRYLNWYQQKPGKPPKLLIFAASTLHSGVPSRFSGSGSGTEFTLTITSLHPDDFSTYYCQQTYSSPHTFGQGTKLEIK
notes: also called S.11.1.F4 mAb
Binder B3 has an RU [13] of 218 RU, an RU [14] of 743 RU and an RU [15] of 153 RU. The Kd [16] was 1.21 nM, the Kd [17] was 1.89 nM and the Kd [18] was 0.584 nM.

B4: Monoclonal antibody S.11.1.H1 (antibody, V domains shown)
VH: QVQLVESGGGVVQPGRSLTLSCSASGFPFSTYVMHWVRQAPGKGLEWVAVISSDGSNENYADSVKGRFTVSRDNFGSTLFLQMSTLRPDDTAVYYCARTAGRGYADRGRLDTWGQGTLVTVSS
VL: not shown
notes: also called mAb S.11.1.H1
In the case of B4, the RU [19] is reported as 913 RU and the Kd [20] is reported as 0.548 nM.

B5: Monoclonal antibody S.9.1.H5 (antibody, V domains shown)
VH: QVQLVESGGGVVQPGRSLRLSCAASGFTFSRYGMHWVRQAPGKGLEWVALISYDGTNKYYADSVKGRFTISRDNSKSTQYLQMNSLRAEDTAVYFCAKESFGYASGSYYFDYWGQGTLVTVSS
VL: DIQMTQSPSSLSASVGDRITITCQASQDISNYLNWYQQKPGKAPKLMIYDASNLETGVPSRFSGSGAGTDFTFTISSLQPEDFARYYCQQYGNLPLTFGGGTKVEIK
notes: also called mAb S.9.1.H5
Binder B5 has an RU [21] of 376 RU, an RU [22] of 942 RU and an RU [23] of 175 RU. For the same binder, the Kd [24] was 1.11 nM, the Kd [25] was 1.83 nM and the Kd [26] was roughly 0.197 nM.

B6: Monoclonal antibody S.9.4.A9 (antibody, V domains shown)
VH: QVQLVQSGAEVKKPGASVKVSCKASGYTFISYGISWVRQAPGQELEWMGWISAYNGNTNYAQKLQGRVTMTRDTSTTTAYMELRSLRSDDTAVYYCARVLGGLWFGEPKARHSDYWGQGTLVTVSS
VL: IQMTQSPSSLSASVGDRVTITCRASQGINNYLAWFQQKPGKAPKSLIYAASSLHSGVPSRFSGSGSGTDFTLTISSLQPEDFATYYCQQYNTYPITFGQGTRLEIK
notes: also called mAb S.9.4.A9
Work on B6 yielded an RU [27] of 3 RU, an RU [28] of 4 RU and an RU [29] of 1 RU. For the same binder, the Kd [30] was 0.254 nM, the Kd [31] was roughly 0.0316 nM and the Kd [32] was roughly 79.6 nM.
